From US20220411498A1 (JACOBIO PHARMACEUTICALS, published 2022)
Positions count from the first letter of the chain named. Where two headings read alike, the source gives them in different places.

T1: cyno CD39 on the cell surface (293T/17-cyno CD39 cells) (cyno, UniProt P49961 7-510 (human entry))
T1 chain: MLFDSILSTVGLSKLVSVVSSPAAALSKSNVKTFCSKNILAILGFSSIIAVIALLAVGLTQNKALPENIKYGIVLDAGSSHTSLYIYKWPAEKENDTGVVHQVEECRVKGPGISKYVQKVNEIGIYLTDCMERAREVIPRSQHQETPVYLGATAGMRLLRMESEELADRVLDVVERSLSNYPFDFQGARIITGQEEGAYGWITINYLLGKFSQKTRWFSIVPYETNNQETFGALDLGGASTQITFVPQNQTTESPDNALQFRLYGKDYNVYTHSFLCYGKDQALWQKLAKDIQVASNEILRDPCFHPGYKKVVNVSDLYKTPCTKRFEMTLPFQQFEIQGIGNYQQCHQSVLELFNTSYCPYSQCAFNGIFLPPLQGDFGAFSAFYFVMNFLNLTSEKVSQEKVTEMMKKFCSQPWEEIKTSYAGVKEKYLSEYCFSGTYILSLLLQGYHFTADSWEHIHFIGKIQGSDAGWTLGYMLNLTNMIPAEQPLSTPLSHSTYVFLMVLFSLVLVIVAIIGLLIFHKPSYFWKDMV

T2: huCD39 on the cell surface (293T/17-huCD39 cells) (human, UniProt P49961 1-510)
T2 sequence (looked up): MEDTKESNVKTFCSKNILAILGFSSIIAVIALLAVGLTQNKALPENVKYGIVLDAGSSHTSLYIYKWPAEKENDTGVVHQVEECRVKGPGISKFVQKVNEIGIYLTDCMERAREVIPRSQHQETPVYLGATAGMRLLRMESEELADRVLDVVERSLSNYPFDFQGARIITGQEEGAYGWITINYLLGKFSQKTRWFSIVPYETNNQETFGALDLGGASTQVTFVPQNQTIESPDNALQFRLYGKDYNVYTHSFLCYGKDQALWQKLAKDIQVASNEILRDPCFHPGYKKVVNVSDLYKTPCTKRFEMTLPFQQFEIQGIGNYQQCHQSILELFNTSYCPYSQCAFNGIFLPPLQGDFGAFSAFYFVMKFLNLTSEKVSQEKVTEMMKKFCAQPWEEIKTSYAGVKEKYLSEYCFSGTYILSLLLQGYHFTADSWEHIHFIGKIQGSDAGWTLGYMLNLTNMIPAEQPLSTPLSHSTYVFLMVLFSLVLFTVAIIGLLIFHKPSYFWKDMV

T3: huCD39 recombinant protein (human, UniProt P49961 38-478)
T3 construct: the entry is the extracellular domain and ends in a histidine tag; also called soluble huCD39 protein; human CD39 extracellular domain recombinant protein
T3 sequence: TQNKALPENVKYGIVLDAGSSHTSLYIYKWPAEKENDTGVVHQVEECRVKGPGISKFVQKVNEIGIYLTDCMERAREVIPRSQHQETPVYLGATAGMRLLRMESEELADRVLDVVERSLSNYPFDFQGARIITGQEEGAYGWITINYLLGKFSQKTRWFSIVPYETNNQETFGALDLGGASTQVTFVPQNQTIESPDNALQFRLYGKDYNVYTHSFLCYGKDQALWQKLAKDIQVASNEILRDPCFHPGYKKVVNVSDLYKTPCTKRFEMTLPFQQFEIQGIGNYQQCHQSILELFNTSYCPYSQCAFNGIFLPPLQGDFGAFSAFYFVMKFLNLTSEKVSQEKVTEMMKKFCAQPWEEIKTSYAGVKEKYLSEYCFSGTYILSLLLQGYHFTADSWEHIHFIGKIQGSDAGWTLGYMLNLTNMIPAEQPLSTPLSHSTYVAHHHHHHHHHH

B1: 216 hIgG2 (antibody, V domains shown)
VH: EVQLVESGGGLVKPGGSLKLPCAASGFTFSDYGMHWVRQAPEKGLEWVAYISSGSSIIYYADTVKGRFTISRDNAKNTLFLQMTSLRSEDTAMYYCARDLYYDHVLDYWGQGTTLTVAS
VL: DIQMTQSPSSLSASLGERVSLTCRASQEISGYLIWLQQKPDGTIKRLIYAASTLDSGVPKRFSGNRSGSDYSLTISSLESEDFADYYCLQYASYPRTFGGGTKLEIKR
notes: Chimeric antibody: mouse Fv fused to the human IgG2 constant region; also called chimeric antibody 216
B2: 219 hIgG2 (antibody, V domains shown)
VH: B1 VH with P21S, I58R, M93I, A118S
VL: B1 VL with I29V, I34N, N65S, L104V
notes: Chimeric antibody: mouse Fv fused to the human IgG2 constant region; also called chimeric antibody 219
B3: 217 hIgG2 (antibody, V domains shown)
VH: B1 VH with P21S, I57V, A61V, Y108S, A118S
VL: B1 VL with S30G, I34S, N65S
notes: Chimeric antibody: mouse Fv fused to the human IgG2 constant region
B4: 201 hIgG2 (antibody, V domains shown)
VH: B1 VH with P21S, I58M, T84A, A118S
VL: B1 VL with S30R, D41G, N65S, A92T
notes: Chimeric antibody: mouse Fv fused to the human IgG2 constant region, expressed in 293F cells; also called chimeric antibody 201
B5: h201H3.1+h201L1.1dmut G2C (antibody, human IgG2, kappa, V domains shown)
VH: QVQLVESGGGVVQPGRSLRLSCAASGFTFSDYGMHWVRQAPGKGLEWVAYISSGSSIMYYADTVKGRFTISRDNSKNTLYLQMNSLRAEDTAVYYCARDLYYDHVLDYWGQGTTVTVSS
VL: DIQMTQSPSSLSASVGDRVTITCRASQEIRGYLIWLQQKPGKAIKRLIYAASTLESGVPSRFSGSRSGSDYTLTISSLQPEDFATYYCLQYTSYPRTFGQGTKVEIKR
notes: Humanized antibody, expressed in 293F cells

Columns and labels:
[1] = biological target: T1, cyno CD39 on the cell surface …; assay: cell-based or functional assay
[2] = biological target: T2, huCD39 on the cell surface …; assay: cell-based or functional assay
[3] = biological target: T3, huCD39 recombinant protein; assay: indirect ELISA, huCD39 recombinant protein coated at 1 ug/mL
Experimental: The Fv region of the four mouse-derived antibodies obtained in Example 1 was fused with the human IgG2 Fc region and constructed into the pcDNA3.1 vector. Then transfected 293F cells to express the antibody proteins, and the antibodies were purified by ProteinA affinity chromatography. […] The next day, the plates were washed 5 times with PBS buffer and blocked with 200 μL/well of 2% skimmed milk powder for 1 h. A certain dose range of chimeric CD39 antibody was incubated for 1 h at room temperature; then washed 5 times with PBST washing buffer (PBS, 0.05% Tween 20). 100 μL of HRP-labeled secondary antibody was added to each well and the plates were incubated for 30 min at room temperature. The plates were washed 5 times again and TMB (Life Technologies) was added for color development for 5 to 10 min. At last, 1N HCl was added to terminate the reaction, and the OD value was measured at 450 nm. GraphPad Prism software was used to generate data plots and the affinity data was counted (FIG. 1).

[4] = biological target: T1, cyno CD39 on the cell surface …; assay: flow cytometry on 293T/17-cyno CD39 cells
Experimental: (§1) Flow cytometry assay: recombinant host cell line 293T/17-huCD39 cells expressing huCD39 and recombinant host cell line 293T/17-cyno CD39 cells expressing cyno CD39 were used to evaluate the binding ability of the chimeric antibody to the natural CD39 protein on the cell surface. The recombinant cells were resuspended in PBS buffer, and 2×10⁶ cells were added to a 96-well U-plate. The chimeric antibody in a certain gradient dilution range incubated for 1h at 4° C. in a refrigerator or on ice, centrifuged at 1500 rpm for 3 min at 4° C., washed three times with PBS buffer, and then incubated for 30 min at 4° C. in the refrigerator or on ice with diluted Alexa Fluor 488-labeled goat anti-human polyclonal antibody (pAb): Goat anti-Human IgG (H+L) Cross-Adsorbed Secondary Antibody, Alexa Fluor 488 (thermo). Finally the cells were washed three times with PBS as described above and analyzed in MACSQuant flow cytometry. GraphPad Prism software was used to generate data plots and count affinity data (FIG. 2). The results are shown in Table 2, and the EC₅₀ values of each chimeric antibody of 293T/17-huCD39 and 293T/17-cyno CD39 was at the level of 10⁻⁹M.

[5] = biological target: T2, huCD39 on the cell surface …; assay: flow cytometry on 293T/17-huCD39 cells
Experimental: as §1

[6] = biological target: T2, huCD39 on the cell surface …; assay: flow cytometry on 293T/17-huCD39 cells; remark: listed apart in the source
Experimental: Flow cytometry assay: recombinant host cell line 293T/17-huCD39 cells expressing huCD39 were used to evaluate the binding ability of the humanized antibody to the natural CD39 protein on the cell surface. The recombinant cells were resuspended in PBS buffer, 2×10⁶ cells were added to a 96-well U-plate, and a certain gradient dilution range of the humanized antibody was incubated for 1h at 4° C. in a refrigerator or on ice. The mixture was centrifuged at 1500 rpm for 3 min at 4° C., and washed three times with PBS buffer. Then, incubated for 30 min at 4° C. in the refrigerator or on ice with diluted Alexa Fluor 488-labeled goat anti-human polyclonal antibody (pAb): Goat anti-Human IgG (H+L) Cross-Adsorbed Secondary Antibody, Alexa Fluor 488 (thermo), and finally the cells were washed three times with PBS as described above and analyzed in MACSQuant flow cytometry. Data plots were generated and affinity data were counted using GraphPad Prism software (FIG. 5). The results are shown in Table 5, and the EC₅₀ values of 293T/17-huCD39 humanized antibody were all at the level of 10⁻⁹M.

[7] = biological target: T2, huCD39 on the cell surface …; assay: cell-based or functional assay; remark: listed apart in the source
[8] = biological target: T3, huCD39 recombinant protein; assay: indirect ELISA, huCD39 recombinant protein coated at 1 ug/mL; remark: listed apart in the source
Experimental: The next day, washed 5 times with PBS buffer and blocked with 200 μL/well of 2% skim milk powder for 1 h. A certain dose range of CD39 humanized antibody was added, and incubated for 1 h at room temperature. Then, washed 5 times with PBST washing buffer (PBS, 0.05% Tween 20), 100 μL HRP-labeled secondary antibody was added to each well, and incubated for 30 min at room temperature. The plates were washed 5 times again, and TMB (Life Technologies) was added for color development for 5 to 10 min. Finally, 1N HCl was added to terminate the reaction, and the OD value was measured at 450 nm. GraphPad Prism software was used to generate data plots and count the affinity data (FIG. 4). The EC₅₀ values of the binding activity of the three humanized antibodies were all at the level of 10⁻¹⁰ M.

[9] = biological target: T2, huCD39 on the cell surface …; assay: cell-based or functional assay; remark: listed apart in the source

Binder	Blocking of ATPase activity on cell surface (293T/17-cyno CD39, CellTiter Glo): Bottom [1]	Blocking of ATPase activity on cell surface (293T/17-cyno CD39, CellTiter Glo): EC50 [1] [nM]	Blocking of ATPase activity on cell surface (293T/17-cyno CD39, CellTiter Glo): Top [1]	Blocking of ATPase activity on cell surface (293T/17-huCD39, CellTiter Glo): EC50 [2] [nM]	Blocking of ATPase activity on cell surface (293T/17-huCD39, CellTiter Glo): Top [2]	Bottom [3] [OD450]	EC50 [3] [nM]	Top [3] [OD450]	Bottom [4]	EC50 [4] [nM]	Top [4]	Bottom [5]	EC50 [5] [nM]	Top [5]	Blocking of ATPase activity on cell surface (293T/17-huCD39, CellTiter Glo): Bottom [2]	also measured
B1	55600	0.024	275000	0.011	1.03e+06	0.06	2.43	1.43	1.81	11	191	2.17	5.92	151	–	–
B2	44500	0.024	303000	0.01	800000	0.052	1.69	1.33	3.33	8.16	214	3.81	4.51	156	172000	–
B3	42200	0.029	283000	0.008	1.19e+06	0.07	4.8	1.39	3	9.49	160	5.8	3.8	116	147000	–
B4	42300	0.014	232000	0.004	871000	0.046	1.4	1.64	3.23	8.69	209	-6.24	6.56	189	119000	–
B5	–	–	–	–	–	–	–	–	–	–	–	–	–	–	–	Bottom [6]: -1.33; EC50 [6]: 3.31 nM; Top [6]: 280; EC50 of reversal of ATP-mediated proliferation inhibition of human CD4+ T cells (CFSE, flow cytometry) [7]: 5.08 nM; EC50 of reversal of ATP-mediated proliferation inhibition of human CD8+ T cells (CFSE, flow cytometry) [7]: 7.08 nM; Bottom [8]: 0.109 OD450; EC50 [8]: 0.433 nM; Top [8]: 1.03 OD450; Blocking of ATPase activity on cell surface (293T/17-huCD39, CellTiter Glo): Bottom [9]: 39600; Blocking of ATPase activity on cell surface (293T/17-huCD39, CellTiter Glo): EC50 [9]: 0.038 nM; Blocking of ATPase activity on cell surface (293T/17-huCD39, CellTiter Glo): Top [9]: 245000
